Key:
[1] = molecular target: T1, Rexo2 H194A H194A (Homo sapiens) (UniProt Q9Y3B8); experiment: fluorescence polarization; conditions: 50 mM EDTA, Hill coefficient 2.3, FP: 10 nM Cy3-oligonucleotide, 50 mM Tris-HCl pH 7.5, 50 mM NaCl, 15 min at 25 C, crystals: 0.2 M ammonium citrate dibasic, 20% PEG 3350, pH 5.1 …
T1 sequence: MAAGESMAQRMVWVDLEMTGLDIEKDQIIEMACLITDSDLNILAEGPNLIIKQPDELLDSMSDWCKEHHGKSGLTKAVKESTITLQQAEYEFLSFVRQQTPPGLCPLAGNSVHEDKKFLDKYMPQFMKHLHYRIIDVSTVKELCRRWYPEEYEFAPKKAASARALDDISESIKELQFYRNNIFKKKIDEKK

Rexo2 H194A [2] = molecular target: T2, Rexo2 H194A (Homo sapiens, UniProt Q9Y3B8 33-223, H194A); experiment: fluorescence polarization; 50 mM EDTA; FP: 10 nM Cy3-oligonucleotide, 50 mM Tris-HCl pH 7.5, 50 mM NaCl, 50 mM EDTA, 15 min at 25 C; crystals: 0.2 M ammonium citrate dibasic, 20% PEG 3350, pH 5.1, room temperature; conditions: protein: recombinant; tags: N-terminal 6xHis removed by thrombin; chain copies: 2; label: 5'-Cy3; single strand
T2 sequence: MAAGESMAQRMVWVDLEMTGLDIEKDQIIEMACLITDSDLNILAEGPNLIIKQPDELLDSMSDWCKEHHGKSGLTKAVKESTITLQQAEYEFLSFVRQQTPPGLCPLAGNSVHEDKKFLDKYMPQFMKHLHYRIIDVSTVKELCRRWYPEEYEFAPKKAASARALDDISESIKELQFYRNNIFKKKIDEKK

[3] = molecular target: the molecule itself; experiment: SEC-MALS; purified His-tag-free Rexo2 (residues 33-223); MW of ~44 kDa against 22.436 kDa calculated for a protomer; conditions not given
Rexo2 D199A = molecular target: T3, Rexo2 D199A (Homo sapiens, UniProt Q9Y3B8 33-223, D199A); experiment: X-ray crystallography; 2 Mg2+ in active site; pH 5.1; FP: 10 nM Cy3-oligonucleotide, 50 mM Tris-HCl pH 7.5, 50 mM NaCl, 50 mM EDTA, 15 min at 25 C; crystals: 0.2 M ammonium citrate dibasic, 20% PEG 3350, pH 5.1, room temperature; conditions: protein: recombinant; tags: N-terminal 6xHis removed by thrombin; chain copies: 2; single strand
T3 sequence: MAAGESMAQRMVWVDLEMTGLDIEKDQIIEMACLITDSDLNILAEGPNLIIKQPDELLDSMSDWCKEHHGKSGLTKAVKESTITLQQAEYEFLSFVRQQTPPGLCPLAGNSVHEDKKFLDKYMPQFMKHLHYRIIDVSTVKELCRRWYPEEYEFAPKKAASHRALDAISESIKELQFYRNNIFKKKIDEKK

Rexo2 wild type = molecular target: T4, Rexo2 wild type (Homo sapiens, UniProt Q9Y3B8 33-223); experiment: X-ray crystallography; no Mg2+ added, two endogenous Mg2+ at partial occupancy; pH 5.1; FP: 10 nM Cy3-oligonucleotide, 50 mM Tris-HCl pH 7.5, 50 mM NaCl, 50 mM EDTA, 15 min at 25 C; crystals: 0.2 M ammonium citrate dibasic, 20% PEG 3350, pH 5.1, room temperature; conditions: protein: recombinant; tags: N-terminal 6xHis removed by thrombin; chain copies: 2; single strand
T4 sequence: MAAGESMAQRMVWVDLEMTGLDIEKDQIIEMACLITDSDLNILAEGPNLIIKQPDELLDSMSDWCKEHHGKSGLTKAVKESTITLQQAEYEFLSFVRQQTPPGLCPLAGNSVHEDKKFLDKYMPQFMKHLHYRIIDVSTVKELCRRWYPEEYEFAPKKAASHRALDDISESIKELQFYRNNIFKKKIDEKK

Rexo2 H194A [4] = molecular target: T2, Rexo2 H194A; experiment: fluorescence polarization; 50 mM EDTA; Hill coefficient 3.5; Results sentence calls it 12-nt, legend and Methods 11-nt; FP: 10 nM Cy3-oligonucleotide, 50 mM Tris-HCl pH 7.5, 50 mM NaCl, 50 mM EDTA, 15 min at 25 C; crystals: 0.2 M ammonium citrate dibasic, 20% PEG 3350, pH 5.1, room temperature; conditions: protein: recombinant; tags: N-terminal 6xHis removed by thrombin; chain copies: 2; label: 5'-Cy3; single strand
Rexo2 H194A [5] = molecular target: T2, Rexo2 H194A; experiment: fluorescence polarization; 50 mM EDTA; Hill coefficient 1.4; FP: 10 nM Cy3-oligonucleotide, 50 mM Tris-HCl pH 7.5, 50 mM NaCl, 50 mM EDTA, 15 min at 25 C; crystals: 0.2 M ammonium citrate dibasic, 20% PEG 3350, pH 5.1, room temperature; conditions: protein: recombinant; tags: N-terminal 6xHis removed by thrombin; chain copies: 2; label: 5'-Cy3; single strand

2-nt RNA A2 was tested. Which Kd [1] did it give?
Its Kd is 24.4 nM.

For TTTTTTTTTTTT (ssDNA) [12-nt DNA T12], which Kd (Rexo2 H194A [2]) is on record?
Its Kd is 52.2 nM.

B1: human RNA exoribonuclease 2 (Rexo2), wild type, residues 33-223 (enzyme, UniProt Q9Y3B8 33-223, looked up)
chain: MAAGESMAQRMVWVDLEMTGLDIEKDQIIEMACLITDSDLNILAEGPNLIIKQPDELLDSMSDWCKEHHGKSGLTKAVKESTITLQQAEYEFLSFVRQQTPPGLCPLAGNSVHEDKKFLDKYMPQFMKHLHYRIIDVSTVKELCRRWYPEEYEFAPKKAASHRALDDISESIKELQFYRNNIFKKKIDEKK
notes: His tag removed with Thrombin (pET28a, NdeI/SalI); a few vector residues may be left at the N-terminus after cleavage (surmise); Calculated MW of a protomer 22.436 kDa; also called wild-type Rexo2; small fragment nuclease; source: E. coli BL21-CodonPlus (DE3) RIPL, purified (HisTrap HP, Thrombin, HisTrap flow-through, Superdex 75); not shown: His6, N-terminal, cleaved
With B1 as the molecule, how does the “stoichiometry N” value [3] read?
The value was 2.

B2: human Rexo2-D199A mutant, residues 33-223 (enzyme, UniProt Q9Y3B8 33-223, looked up)
chain: MAAGESMAQRMVWVDLEMTGLDIEKDQIIEMACLITDSDLNILAEGPNLIIKQPDELLDSMSDWCKEHHGKSGLTKAVKESTITLQQAEYEFLSFVRQQTPPGLCPLAGNSVHEDKKFLDKYMPQFMKHLHYRIIDVSTVKELCRRWYPEEYEFAPKKAASHRALDAISESIKELQFYRNNIFKKKIDEKK
notes: Made by site-directed mutagenesis from the wild-type construct; PDB 6J7Y holds the wild-type parent; source: E. coli BL21-CodonPlus (DE3) RIPL, purified (HisTrap HP, Thrombin, HisTrap flow-through, Superdex 75); not shown: His6, N-terminal, cleaved
With B2 as the molecule, how does the “stoichiometry N” value [3] read?
The value was 2.

B3: human Rexo2-H194A mutant, residues 33-223 (enzyme, UniProt Q9Y3B8 33-223, looked up)
chain: MAAGESMAQRMVWVDLEMTGLDIEKDQIIEMACLITDSDLNILAEGPNLIIKQPDELLDSMSDWCKEHHGKSGLTKAVKESTITLQQAEYEFLSFVRQQTPPGLCPLAGNSVHEDKKFLDKYMPQFMKHLHYRIIDVSTVKELCRRWYPEEYEFAPKKAASARALDDISESIKELQFYRNNIFKKKIDEKK
notes: human Rexo2, residues 33-223, general base residue H194 replaced by Ala; Made by site-directed mutagenesis from the wild-type construct; PDB 6J7Y holds the wild-type parent; also called H194A Rexo2 mutant; source: E. coli BL21-CodonPlus (DE3) RIPL, purified (HisTrap HP, Thrombin, HisTrap flow-through, Superdex 75); not shown: His6, N-terminal, cleaved
B3 was tested. Which “stoichiometry N” value [3] did it give?
The value was 2.

How did the Kd (Rexo2 H194A [2]) turn out when TTT (ssDNA) [3-nt DNA T3] was run?
The Kd was 29.9 nM.

Does TTTTTTTTTT (ssDNA) [T10 DNA (crystal)] bind (Rexo2 D199A)?
Result: binds

Which Kd (Rexo2 H194A [2]) does the source give for TTTTT (ssDNA) [5-nt DNA T5 (Cy3)] here?
Its Kd is 51.8 nM.

Does TTTTT (ssDNA) [T5 DNA (crystal)] bind (Rexo2 wild type)?
Result: binds

Does UUUUUUUUUUUU (ssRNA) [U12 RNA] bind (Rexo2 D199A)?
Result: binds

AGCGCAGUACC (ssRNA) [11-nt RNA] was tested. Which Kd (Rexo2 H194A [4]) did it give?
The Kd was 44.3 nM.

For AAAAA (ssRNA) [5-nt RNA A5], which Kd (Rexo2 H194A [5]) is on record?
Its Kd is 52.1 nM.
